# Results from patent US9394371B2, “Antibody-mediated disruption of quorum sensing in bacteria” (The Scripps Research Institute, priority 2007, dated 2016).
# Like-named read-outs stand apart in the source and are kept apart here.
# Experiments:
# S. aureus RN4850 [1] = assay type: cell-based
# AIP-2 = assay: Competition ELISA (free native AIP against hapten-BSA coated plates); assay type: binding, S. aureus; details: AP4-BSA coated plates
# AIP-4 = assay: as above; assay type: binding, S. aureus
# Description: (§1) The optimal concentrations of the AP4-BSA conjugate as well as of each mAb were determined. 96 well ELISA plates were coated with the appropriate amount of AP4-BSA conjugate respectively. The plates were blocked with 4% skim milk, washed and mAbs were added at the predetermined optimal concentration. The plates were washed and free antigen, i.e. the native AIPs 1-4, was added to the wells in a concentration series starting at 100 μM. The plate was incubated for 1 hour at 37° C., thoroughly washed, and goat anti-mouse-horseradish peroxidase (HRP) conjugate (Pierce, Rockford, Ill.) was added. After an incubation period of 1 hour at RT, the plate was thoroughly washed again and the HRP substrate (TMB substrate kit; Pierce) was added, the reaction was allowed to develop for 15 minute and stopped by the addition of 2 M H2SO4. The absorbance at 450 nm was read and the values plotted using GraFit (Erithacus Software Ltd). The free antigen concentration at which the absorbance value is 50% of the maximum absorbance was considered the Kd of the antibody for its antigen.
# as §1, with “For the competition ELISA analysis, the optimal concentrations” for “The optimal concentrations”, “of the AP1-BSA, AP3-BSA, or AP4-BSA conjugate,” for “of the AP4-BSA conjugate”, “or AP4-BSA conjugate, as well” for “the AP4-BSA conjugate as well”, “amount of AP1-BSA, AP3-BSA, or AP4-BSA conjugate” for “amount of AP4-BSA conjugate”, “blocked with 4 v % skim milk,” for “blocked with 4% skim milk,”, “for 15 minutes and stopped” for “for 15 minute and stopped”
# AIP-3 = assay: as above; assay type: binding, S. aureus
# Description: as §1
# as §1, with “For the competition ELISA analysis, the optimal concentrations” for “The optimal concentrations”, “of the AP1-BSA, AP3-BSA, or AP4-BSA conjugate,” for “of the AP4-BSA conjugate”, “or AP4-BSA conjugate, as well” for “the AP4-BSA conjugate as well”, “amount of AP1-BSA, AP3-BSA, or AP4-BSA conjugate” for “amount of AP4-BSA conjugate”, “blocked with 4 v % skim milk,” for “blocked with 4% skim milk,”, “for 15 minutes and stopped” for “for 15 minute and stopped”
# AIP-1 = assay: as above; assay type: binding, S. aureus; details: AP4-BSA coated plates
# Jurkat cells = assay: S. aureus supernatant-induced PARP cleavage (apoptosis), Western blot; assay type: cell-based, Human; details: 4 hours, FIG. 5
# [2] = system: agr QS system in S. aureus RN4850; assay type: cell-based
# S. aureus RN4850 [3] = assay: Static biofilm analysis (crystal violet); assay type: cell-based; details: antibody 0.2 mg/mL, FIG. 4C
# S. aureus RN4850 [4] = assay type: cell-based; details: FIG. 3B
# S. aureus Wood 46 = assay type: cell-based
# [5] = system: S. aureus RN4850, NRS168 and Wood 46; assay type: cell-based; details: 24-hour growth period; FIG. 4B
# S. aureus RN4850 [6] = assay: Dermal infection model in mice (abscess formation); details: for S. aureus-induced skin injury: flank injection
# Description: Additional control animals received 200 μL intradermal injections containing Cytodex beads or beads plus antibody. After injections were made the mice were monitored at least three times each day over a period of 4-7 days. At the conclusion of the monitoring period the mice were euthanized and tissues harvested for bacteriologic and histologic analysis.
# SKH1 euthymic hairless mice, 6-8 weeks old were obtained from Charles River Laboratories and housed in the biocontainment vivarium for one week before use in experiments. […] Cytodex 1 beads (GE Healthcare 17-0448-01) were suspended (1 gram in 50 mL) in Dulbecco's Phosphate Buffered Saline without calcium/magnesium (Gibco) overnight at 20° C. The supernatant was decanted and the beads washed three times by suspension in DPBS and 1 G sedimentation followed by autoclaving (121° C., 15 psi, 15 minutes). Staphylococcus aureus RN4850 (AIP4) was grown from frozen stock (BHI+20% glycerol) on brain heart infusion agar plates 35° C. overnight. Three representative colonies were combined to inoculate 2 mL CYGP broth, and after overnight incubation without shaking, 0.25 mL of the culture was used to inoculate 5 mL of CYGP followed by incubation at 35° C., 200 rpm for 3 hours. The culture was centrifuged 1,300×G at 4° C. for 20 minutes, the supernatant poured off, and the bacterial pellet was suspended in 1 mL DPBS without calcium/magnesium. The SKH1 received 200 μL intradermal flank injections containing S. aureus (1×10^7 or 1×10^8 bacteria), 4 μL packed volume Cytodex beads, DPBS, anti-AIP4 antibody or control IgG (0.6 or 0.06 mg). Additional control animals received 200 μL intradermal injections containing Cytodex beads or beads plus antibody. After injections were made the mice were monitored at least three times each day over a period of 4-7 days. At the conclusion of the monitoring period the mice were euthanized and tissues harvested for bacteriologic and histologic analysis.
# Subcutaneous injections of bacterial suspension or vehicle control were made in the flank of SKH1 hairless mice followed by close monitoring over seven days.
# S. aureus RN4850 [7] = assay: Passive immunization against lethal S. aureus challenge; assay type: in vivo, SKH1 mice; details: antibody i.p. 2 hours before 3×10^8 S. aureus RN4850 i.p.; FIG. 8
# Description: FIG. 8 illustrate survival data obtained from passive immunization of mice with AP4-24H11 against S. aureus infection. […] The numbers in parenthesis show number of survivors/number per group. The log rank statistic, p=0.001; n=6 for each group.
# S. aureus RN4850 were stored at −80° C. in 20% glycerol/BHI medium, thawed and grown on BHI-agar plates overnight, and three separate colonies sampled to inoculate 2 mL CYGP medium. The inoculum culture was maintained 1 hour at 35° C. without shaking, followed by shaking at 200 rpm for 3 hours. Aliquots of the freshly grown inoculum culture were transferred to 5 mL CYGP medium in 50 mL conical polypropylene tubes (1/20 dilution) followed by shaking at 200 rpm, 35° C. for 3 hours. The bacteria were pelleted by centrifugation at 3,000 rpm (1300×G) for 10 minutes, 4° C. […]
# Mab AP4-24H11, isotype-matched control IgG (1 mg each) or DPBS was administered i.p. in DPBS to SKH1 mice (6-9 weeks old; 6 animals per treatment group) followed two hours later by 0.5 mL DPBS^− i.p. containing 3×10^8 S. aureus. The mice were monitored several times on the day of injection and twice each day on subsequent days, observing ambulation, alertness, response to handling and skin temperature measured by infrared thermometry (Raytek MiniTemp MT4) using a 1 cm diameter infrasternal skin site. […]
# [8] = selected AP4 mAbs, average of at least two measurements, read-out: Binding constant, AIP-2
# [9] = AP4 Sups, AP4-BSA coated plates, competing hybridomas re-tested, average, read-out: AIP4 wt
# [10] = selected AP4 mAbs, AP4-BSA coated plates, average of at least two measurements, read-out: Binding constant, AIP-4
# [11] = selected AP4 mAbs, average of at least two measurements, read-out: Binding constant, AIP-3
# [12] = AP4 Sups, competing hybridomas re-tested, average, read-out: AIP1 wt
# [13] = selected AP4 mAbs, average of at least two measurements, read-out: Binding constant, AIP-1
molecule,measurement,setting,value
"AP4-4-20: anti-AIP4 human scFv from phage display, expressed in E. coli; probably AP4-20, SEQ ID NO: 53 (protein, listed as Homo sapiens) scFv: QVQLQQSGAGLLRPSETLSLTCGLYGGSFSGHYWNWIRQSPEKGLVWIGEITHSGTTNYNPSLKSRVITSVDTSKNQYSLKLSFVTPADTAVYYCARGDYYGYWYFDLWGRGTLVTVSSGGGGSGGGGSGGGGSQSVLTQPPSVPVAPGQKVTISCSGSSSNIGNNYVSWYQQLPGTAPKLLIYDTNKRPSGIPDRFAGSKSGTSATLGITGLQTGDEADYYCGTWDSSLSAGVFGGGTKLTVL",hemolysins secretion (α-hemolysin western analysis),S. aureus RN4850 [1],clear reduction in hemolysins secretion
"AP4-29E10: murine monoclonal antibody raised against AP4 lactone hapten (antibody, V domains shown) VH: EVQLQQSGPELEKPGASVKISCKASGHSFTGYNMNWVKQSNDKSLEWIGNIAPYYGVTAYNQKFKGKATLTGDKSSSTAYMQLKSLASEDSAVYYCVLDTSGYASWGQGTLVTVSA VL: DIVMTQATASLTVSLGQRATISCRASKSVSTSGYSYMHWYQQKPGQPPKLLIYLASNLESGVPARFSGSGSGTDFTLNIHPVEEEDAATYYCQHSREVPYTFGGGTKLELK",Kd,"AIP-2; AP4 Sups, read-out: AIP2 wt",> 25000 nM
same,Kd,AIP-2; [8],> 25000 nM
same,Kd,AIP-4; [9],~24 nM
same,Kd,"AIP-4; AP4 Sups, tested 5 different times, read-out: AIP4 Kd, variability over 5 different tests",2 to 110 nM
same,Kd,AIP-4; [10],~24 nM
same,Kd,"AIP-3; AP4 Sups, read-out: AIP3 wt",> 25000 nM
same,Kd,AIP-3; [11],> 25000 nM
same,Kd,AIP-1; [12],~3000 nM
same,Kd,AIP-1; [13],~3000 nM
"AP4-24H11: murine anti-AIP-4 monoclonal antibody; VH SEQ ID NO: 20, VL SEQ ID NO: 148 (antibody, V domains shown, Murine) VH: EVKPQESGPGLVKPSQSLSLTCTVTGYSITSNYAWNWIRQFPGNKLEWMGFISSYGTTTYNPSLKSRFSITRDTSKNQFFLQLHSVTIEDTGTYFCTREGDYWGQGTTLTVSS VL: DIVMTQATLSLPVSLGDQASISCRSSQRLVPSNGNIYLHWFLQKPGQSPKLLIYKLSSRFSGVPDRFSGSGSGTDFTLKISRVESEDLGIYFCSQTTHVPYTFGGGTKLEIK",PARP cleavage induced by RN4850 supernatant,Jurkat cells; supernatant (1%) of culture grown with antibody,prevented RN4850 supernatant (1%)-induced PARP cleavage
same,PARP cleavage induced by Wood 46 supernatant,Jurkat cells; supernatant of culture grown with antibody,partially inhibited the effect of Wood 46 supernatant
same,eta mRNA fold-change,[2],−8.1±1 fold
same,hla mRNA fold-change,[2],−5.2±3.1 fold
same,rnaIII mRNA fold-change,[2],−77±48 fold
same,saeR mRNA fold-change,[2],+1.4±0.4 fold
same,sarA mRNA fold-change,[2],−2.1±0.6 fold
same,spa mRNA fold-change,[2],+5.7±3.6 fold
same,decrease of eta transcription,[2]; RN4850,≈ 10 fold
same,elevation of spa transcription,[2]; RN4850,3 to 5 fold
same,suppression of hla transcription,[2]; RN4850,3 to 5 fold
same,reduction of rnaIII transcriptional level,"[2]; RN4850, stationary growth phase",> 50 fold
same,change in saeR transcription,"[2]; RN4850, no significant changes",≤ 2 fold
same,change in sarA transcription,"[2]; RN4850, no significant changes",≤ 2 fold
same,Kd,"AIP-2; AP4 Sups, read-out: AIP2 wt",> 25000 nM
same,Kd,AIP-2; [8],> 25000 nM
same,static biofilm formation,S. aureus RN4850 [3],increased biofilm formation
same,hemolytic activity of treated supernatant on blood agar plates,S. aureus RN4850 [4],no hemolytic activity was observed
same,Kd,AIP-4; [9],~98 nM
same,Kd,AIP-4; [10],~90 nM
same,Kd,"AIP-3; AP4 Sups, read-out: AIP3 wt",> 25000 nM
same,Kd,AIP-3; [11],> 25000 nM
same,α-hemolysin production (Western blot),S. aureus Wood 46,notable decrease in α-hemolysin production
same,Kd,AIP-1; [12],~5000 nM
same,Kd,AIP-1; [13],~5000 nM
same,growth of S. aureus in presence of antibody,[5],no significant growth changes
same,"condition of mice injected with PBS/Cytodex containing antibody, no bacteria","S. aureus RN4850 [6]; 0.6 mg antibody, occasional local induration, FIG. 7D",remained normal
same,S. aureus-induced skin injury,S. aureus RN4850 [6]; 10^8 bacteria with 0.06 mg antibody,not protective
same,S. aureus-induced skin injury,"S. aureus RN4850 [6]; 10^8 bacteria with 0.6 mg antibody, 7 day observation",skin injury was abrogated
same,survivors/number per group through the 8-day observation period,S. aureus RN4850 [7],6/6
same,exoprotein expression/secretion (SDS-PAGE),S. aureus RN4850 [1],affects the expression and/or secretion of S. aureus exoproteins
same,hemolysins secretion (α-hemolysin western analysis),S. aureus RN4850 [1],clear reduction in hemolysins secretion
same,protein A expression (Western blot),S. aureus RN4850 [1]; 20-24 hours,significantly increased
same,α-hemolysin expression (Western blot),S. aureus RN4850 [1]; 20-24 hours,reduce the α-hemolysin expression
